Test [1] deals with H322 NSCLC cells. Description: Proliferation assay (Cell Titer-Glo) with anti-IGFR1 antibody and a chemotherapeutic agent, H322 NSCLC cells. Format: cell-based, human. The note with it: H322, Day4, replicates. As for the experimental part: The ability of cells in culture to proliferate when exposed to varying concentrations of the 19D12/15H12 wild-type or 19D12/15H12 LCF/HCA anti-IGFR1 antibody and either paclitaxel, gefitinib, lonafarnib 4-hydroxy tamoxifen or doxorubicin was evaluated in this example.
Cell Preparation. […] The cells were trypsinized, counted and resuspended at a concentration of 25000 cells/ml in 10% HI-FBS (heat-inactivated fetal bovine serum) RPMI medium containing NEAA (non-essential amino acids), L-Glu, MEM Vitamins and PS. 100 ul of cell suspension (2500 cells) was added to each well of a BD Falcon 96 well black, clear bottom TC treated plate. The cells were allowed to attach and spread overnight at 37° C. The 10% RPMI solution was replaced with 100 μl RPMI containing 2% HI-FBS containing NEAA, L-Glu, MEM Vitamins and PS.
Solution Preparation. All assay reagents were prepared in RPMI containing 2% HI-FBS at 20× concentration and serial diluted for a total of 10 test concentrations per treatment. Every test point was prepared in triplicate on separate assay plates.
Reagent 1 and 19D12/15H12 or 19D12/15H12 LCF/HCA were set up individually as dose responses as well as in combination with each other. Cell proliferation was measured on Day4.
Assay. Cell proliferation was measured using the Promega Cell Titer-Glo Luminescent Cell Viability Assay (Promega Corp.; Madison, Wis.). This assay provided a method for determining the number of viable cells in culture based on quantitation of ATP in the culture, which indicates the presence of metabolically active cells.
The assay reagents and assay plates were equilibrated to room temperature and prepared immediately before addition to the assay plates. One volume of assay reagent was added to each well of the assay plate and shaken on an orbital platform for at least ten minutes to allow for equilibration of the ATP reaction and to ensure total lysis of all cells in the assay plate. […] Luminescence was detected on Wallac 420 Plate Reader with stacker.
The units in the tables (proliferation index) are arbitrary and are proportional to the number of viable cells observed in the culture under each respective condition.
In Tables 2-6, “ug” indicates micrograms and “uM” indicates micromolar.
(In general: ATP-based viability assays read luminescence as a measure of living cells.)

Test [2] relates to H322 human NSCLC cells. Description: In vivo tumor inhibition assay, NSCLC xenograft model H322. The arrangement: species or system nude mice. The note with it: for Growth: Day 0 to 31. As for the experimental part:
Five million H322 human NSCLC cells in Matrigel were inoculated subcutaneously into nude mice. Anti-IGFR antibody 19D12 and/or paclitaxel treatment was initiated when the tumor size reached ˜105-115 mm^3 at day 0. Both 19D12 and paclitaxel were dosed twice per week. Anti-IGFR antibody 19D12 was dosed at 0.5 mg per mouse. Paclitaxel was at 15 mpk. Ten animals per group. Tumor volumes were measured by Labcat.

The mark [3] stands for this setting: Day 0 (treatment start), H322 xenograft in nude mice.
Where [4] appears, read: 19D12 0.5 mg per mouse and/or Taxol 15 mpk, twice per week.
Where [5] appears, read: Day 31, 19D12 0.5 mg per mouse and/or Taxol 15 mpk, twice per week.

Several values for one entry are separate records, joined by “and”; a condition that tells them apart may be missing. Equal values may be shown once.

Results on 3 molecules are retold here after US8017735B2, “Anti-IGFR1 antibody therapeutic combinations” (Schering Corporation, priority 2003, dated 2011).

In the case of `CC(=O)O[C@H]1C(=O)[C@@]2(C)[C@H]([C@H](OC(=O)c3ccccc3)[C@]3(O)C[C@H](OC(=O)[C@H](O)[C@@H](NC(=O)c4ccccc4)c4ccccc4)C(C)=C1C3(C)C)[C@]1(OC(C)=O)CO[C@@H]1C[C@@H]2O` [Taxol, paclitaxel], the proliferation index is 72498 and 78070 and 89290 and 71662 and 72122 and 77618 and 81720 and 80172 and 76744 in test [1] (Taxol alone 0.00256 ng/mL); 75374 and 83082 and 74926 and 73584 and 75710 and 75356 and 87602 and 75690 and 76350 in test [1] (Taxol alone 0.064 ng/mL); 38354 and 33654 and 34598 and 31556 and 36038 and 35906 and 34498 and 53256 and 41418 in test [1] (Taxol alone 8 ng/mL); 22160 and 25204 and 22624 and 22020 and 22956 and 24152 and 23908 and 24834 and 22462 in test [1] (Taxol alone 40 ng/mL); 19372 and 23650 and 23668 and 23164 and 23482 and 24314 and 25752 and 23960 and 21420 in test [1] (Taxol alone 200 ng/mL); 20932 and 26882 and 24582 and 23884 and 23712 and 25890 and 24522 and 24842 and 20306 in test [1] (Taxol alone 1000 ng/mL). For the same molecule, the tumor volume in test [2] (setting [3]) is reported as 109.54 mm3; in test [2] (setting [5]) it was 214.25 mm3. Moreover, the Growth in test [2] (setting [4]) is on record as 104.71. Moreover, the “% inhibition (tumor growth inhibition)” value in test [2] (setting [5]) came to 52%.

B1: 19D12/15H12 LCF/HCA: monoclonal, fully-human anti-IGFR1 antibody: mature light chain F (SEQ ID NO: 2) paired with mature heavy chain A (SEQ ID NO: 4) (antibody, listed as Homo sapiens, V domains shown)
VH: MEFGLSWVFLVAILKGVQCEVQLVQSGGGLVKPGGSLRLSCAASGFTFSSFAMHWVRQAPGKGLEWISVIDTRGATYYADSVKGRFTISRDNAKNSLYLQMNSLRAEDTAVYYCARLGNFYYGMDVWGQGTTVTVSS
VL: MSPSQLIGFLLLWVPASRGEIVLTQSPGTLSVSPGERATLSCRASQSIGSSLHWYQQKPGQAPRLLIKYASQSLSGIPDRFSGSGSGTDFTLTISRLEPEDFAVYYCHQSSRLPHTFGQGTKVEIKRT
Take B1: the proliferation index in test [1] (antibody alone 0.000256 nM (Table 2 plates)) was 73420 and 74154 and 83338 and 74108 and 84234 and 83206 and 80894 and 82674 and 71784; in test [1] (antibody alone 0.0064 nM (Table 2 plates)), 61654 and 79014 and 72998 and 69060 and 64818 and 74862 and 76374 and 68206 and 70226; in test [1] (antibody alone 0.8 nM (Table 2 plates)), 40944 and 47470 and 52010 and 49636 and 55228 and 53706 and 56984 and 49396 and 47080; in test [1] (antibody alone 0.8 nM (Table 3 plates)) it was 49206; in test [1] (antibody alone 4 nM (Table 2 plates)), 42312 and 48884 and 49992 and 50508 and 47256 and 56998 and 54966 and 51438 and 44700; in test [1] (antibody alone 20 nM (Table 2 plates)) it was 44120 and 55106 and 50680 and 49038 and 56114 and 52446 and 51826 and 52490 and 48302. The proliferation index is 51960 and 58598 and 48444 and 49156 and 51020 and 48730 and 49684 and 45064 and 52120 in test [1] (antibody alone 20 nM (Table 3 plates)); 74408 and 87030 and 83636 and 79810 and 79650 and 90294 and 88940 and 86762 and 74996 in test [1] (antibody alone 5.12E−05 nM (Table 2 plates)).

B2: 19D12: Anti-IGFR antibody 19D12 (antibody, listed as Homo sapiens, V domains shown)
VL: B1 VL
VH: B1 VH
As to B2, the tumor volume in test [2] (setting [3]) was determined as 106.57 mm3; in test [2] (setting [5]), 173.02 mm3. Besides, the Growth in test [2] (setting [4]) came out at 66.45. Besides, the “% inhibition (tumor growth inhibition)” value in test [2] (setting [5]) was found to be 75.50%.
